Data taken from the supplement of paper PMC10567573.

B1: OAS1 (parent)
chain: TPAKSLDKFIEDYLLPDTCFRMQI

Variants of: B1
Assay: protein stability index of a GFP-peptide fusion (GPS, HEK-293T) (PSI 1-6); higher = more stable
Settings: c terminus: a fixed tail appended
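Further: lentivirally expressed fusions sorted by FACS into six bins by GFP to DsRed ratio, PSI derived from sequencing read proportions per bin multiplied by bin number.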

Protein stability index of substitutions, site by site:
I24: V 2, D 2.47, H 2.22, F 2.76, Y 1.56, T 1.46, A 1.74, R 2.43, E 1.85, L 2.15, S 1.84, Q 1.67, G 1.55, N 1.76, M 1.7, C 2.23, K 1.99, W 2.39, P 2.12
F20: R 2.8, S 2.28, Y 2.56, W 3.38, N 1.95, V 2.97, Q 1.58, T 2.21, P 1.75
R21: F 2.13, D 1.56, I 2.93, T 3.86, M 2.31, K 2.46, V 3.2, N 2.73, W 1.43, Y 2.44, S 3.4, P 1.31, Q 3.37, G 2.33, H 3.05, A 3.28, L 3.64
Q23: H 3.27, E 2.6, P 1.99, R 3.21, W 3.07, L 3.03, V 2.56, T 2.48, A 3.37, K 1.54, M 3.2, F 2.13, D 2.73, N 1.42, S 5.04, G 3.25, C 3.21, I 2.22, Y 3.27
M22: C 2.94, V 2.23, S 1.64, A 1.93, G 2.51, W 2.45, T 2.21, H 2.28, L 2.39, K 1.98, Y 2.9, Q 1.5, R 1.94, F 1.35, D 2.1, N 1.99, I 3.42, P 2.03, E 2.23
